Data from patent publication US20260193366A1 (APOGEE THERAPEUTICS, published 2026).

T1: human IL-4Rα (human, UniProt P24394 26-232)
T1 construct: also called Hu IL-4Rα; hIL-4Rα
T1 sequence: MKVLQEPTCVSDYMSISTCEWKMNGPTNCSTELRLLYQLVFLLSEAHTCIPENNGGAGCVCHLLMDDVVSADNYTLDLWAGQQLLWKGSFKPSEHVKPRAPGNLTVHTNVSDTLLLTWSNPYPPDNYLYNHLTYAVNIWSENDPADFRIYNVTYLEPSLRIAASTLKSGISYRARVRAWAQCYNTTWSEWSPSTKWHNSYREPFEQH

T2: cynomolgus monkey IL-4Rα (cynomolgus monkey, UniProt P24394 26-231 (human entry), limits assumed)
T2 construct: also called Cyno IL-4Rα; cyIL-4Rα
T2 chain: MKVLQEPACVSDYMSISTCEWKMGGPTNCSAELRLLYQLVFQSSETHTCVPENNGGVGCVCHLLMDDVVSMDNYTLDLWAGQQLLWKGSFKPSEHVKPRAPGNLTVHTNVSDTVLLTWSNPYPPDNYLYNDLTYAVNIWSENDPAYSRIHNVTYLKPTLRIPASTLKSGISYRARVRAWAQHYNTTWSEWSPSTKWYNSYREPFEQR

T3: hIL-4Rα on cells (human, UniProt P24394 26-825)
T3 sequence: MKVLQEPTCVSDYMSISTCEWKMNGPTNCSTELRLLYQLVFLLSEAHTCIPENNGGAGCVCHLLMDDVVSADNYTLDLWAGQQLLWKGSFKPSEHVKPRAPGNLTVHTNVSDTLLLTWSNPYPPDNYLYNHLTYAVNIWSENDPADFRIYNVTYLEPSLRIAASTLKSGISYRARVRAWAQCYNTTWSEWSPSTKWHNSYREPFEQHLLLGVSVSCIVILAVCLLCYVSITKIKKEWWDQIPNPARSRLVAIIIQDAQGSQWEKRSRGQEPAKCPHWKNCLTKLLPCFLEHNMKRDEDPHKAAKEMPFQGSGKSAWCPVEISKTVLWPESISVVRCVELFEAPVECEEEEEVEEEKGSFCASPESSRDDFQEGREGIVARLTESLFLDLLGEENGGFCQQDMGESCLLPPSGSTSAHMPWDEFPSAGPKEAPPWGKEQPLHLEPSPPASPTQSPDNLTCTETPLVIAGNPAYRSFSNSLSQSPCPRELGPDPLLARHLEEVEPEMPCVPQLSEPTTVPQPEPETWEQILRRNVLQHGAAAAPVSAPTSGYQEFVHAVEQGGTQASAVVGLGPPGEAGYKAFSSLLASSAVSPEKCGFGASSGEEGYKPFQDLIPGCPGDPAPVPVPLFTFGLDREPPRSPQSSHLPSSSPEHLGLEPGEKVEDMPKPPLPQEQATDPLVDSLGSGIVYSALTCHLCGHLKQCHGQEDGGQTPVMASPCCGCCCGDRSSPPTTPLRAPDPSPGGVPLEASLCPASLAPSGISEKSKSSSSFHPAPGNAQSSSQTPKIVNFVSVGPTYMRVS


Tests used:
human IL-4Rα = target: T1, human IL-4Rα; assay: SPR, Carterra LSA;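 also: antibodies captured on an anti-human Fc sensor chip, antigen injected at several concentrations, association and dissociation rates fitted with a 1:1 Langmuir model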
cynomolgus monkey IL-4Rα = target: T2, cynomolgus monkey IL-4Rα; assay: SPR, Carterra LSA;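 also: antibodies captured on an anti-human Fc sensor chip, antigen injected at several concentrations, association and dissociation rates fitted with a 1:1 Langmuir model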
hIL-4Rα on cells [1] = target: T3, hIL-4Rα on cells; assay: cell-based or functional assay
hIL-4Rα on cells [2] = target: T3, hIL-4Rα on cells; assay: cell-based or functional assay; remark: listed apart in the source
hIL-4Rα on cells [3] = target: T3, hIL-4Rα on cells; assay: cell-based or functional assay; remark: listed apart in the source
hIL-4Rα on cells [4] = target: T3, hIL-4Rα on cells; assay: FACS on HEK293 cells, competitor biotin-hIL-4;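 also: HEK293 cells stably co-expressing hIL-13Rα and hIL-4Rα, stained for 1 h at 4 °C, read-out as mean fluorescence intensity by flow cytometry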
Experimental: (§1) Briefly, HEK293 previously transduced to stably express both hIL-13Rα and hIL-4Rα were cultured and harvested. Cells were seeded at 200,000 cells in 100 uL per well. Cells were washed and the supernatant discarded. […] The cells were stained in this mixture at 4° C. for 1 hour. […] Cells were incubated 4° C. for 1 hour, protected from light. Cells were then washed and the MFI of cells in each well were recorded by FACS using a BD FACSCanto II. Subsequent data were analyzed using GraphPad Prism.

hIL-4Rα on cells [5] = target: T3, hIL-4Rα on cells; assay: FACS on HEK293 cells, competitor biotin-hIL-13;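 also: stably transduced cells co-expressing both receptor chains, stained cold, with cell-bound signal read as mean fluorescence intensity by flow cytometry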
Experimental: as §1

| KD Relative to Dupilumab (human IL-4Rα) | Kd (human IL-4Rα) [nM] | KD Relative to Dupilumab (cynomolgus monkey IL-4Rα) | Kd (cynomolgus monkey IL-4Rα) [nM] | Relative Inhibition of IL-4 induced pSTAT6 IC50 (hIL-4Rα on cells [1]) | Relative Inhibition of IL-13 induced pSTAT6 IC50 (hIL-4Rα on cells [1]) | Relative Inhibition of IL-4 induced TARC IC50 (hIL-4Rα on cells [2]) | Relative Inhibition of IL-13 induced TARC IC50 (hIL-4Rα on cells [2]) | Relative Inhibition of IL-4 induced TF-1 Proliferation IC50 (hIL-4Rα on cells [3]) | Relative Inhibition of IL-13 induced TF-1 Proliferation IC50 (hIL-4Rα on cells [3]) | Relative Blockade of IL-4 Binding IC50 (hIL-4Rα on cells [4]) | Relative Blockade of IL-13 Binding IC50 (hIL-4Rα on cells [5]) | Binder |
| --- | --- | --- | --- | --- | --- | --- | --- | --- | --- | --- | --- | --- |
| 0.72 | 0.0081 | 0.02 | 15.7 | 0.63 relative to dupilumab | 0.624 relative to dupilumab | 0.693 relative to dupilumab | 1.39 relative to dupilumab | 0.486 relative to dupilumab | 0.851 relative to dupilumab | 0.887 relative to dupilumab | 0.695 relative to dupilumab | Construct 29 (mAb437) (antibody, IgG4, V domains shown, VH/VL only) VH: EVQLVESGGGLEQPGGSLRLSCAGSGFTFRDFAMTWVRQAPGKGLEWVSSISGSGGNIYYADSVKGRFTISRDNSKNTLYLQMNSLRAEDTAVYYCAKDRLSVTVRPRYYGLDVWGQGTTVTVSS VL: DIVMTQSPLSLPVTPGEPASISCTSSQSLLYSIGYNYVDWYLQKSGQSPQLLIYLGNKRASGVPDRFSGSGSGTDFTLKISRVEAEDVGFYYCMQSLTSPYTFGQGTKLEIK |
| 0.76 | 0.00856 | 0.14 | 85.4 | 0.767 relative to dupilumab | 0.66 relative to dupilumab | 0.521 relative to dupilumab | 0.506 relative to dupilumab | 0.514 relative to dupilumab | 0.683 relative to dupilumab | 0.877 relative to dupilumab | 0.949 relative to dupilumab | Construct 3 (mAb412) (antibody, IgG4, V domains shown, VH/VL only) VH: EVQLVESGGGLEQPGGSLRLSCAGSGFTFRDFAMTWVRQAPGKGLEWVSSISGSGSSTYYADSVKGRFTISRDNSKNTLYLQMNSLRAEDTAVYYCAKDRLSITVRPRYYGLDVWGQGTTVTVSS VL: DIVMTQSPLSLPVTPGEPASISCRSSQSLLYSIGYNYVDWYLQKSGQSPQLLIYLGNKRASGVPDRFSGSGSGTDFTLKISRVEAEDVGFYYCMQALTTPYTFGQGTKLEIK |
| 1.61 | 0.0181 | 0.1 | 64.2 | 0.507 relative to dupilumab | 0.685 relative to dupilumab | 0.267 relative to dupilumab | 0.314 relative to dupilumab | 0.376 relative to dupilumab | 0.87 relative to dupilumab | 0.799 relative to dupilumab | 0.942 relative to dupilumab | Construct 2 (mAb411) (antibody, IgG4, V domains shown, VH/VL only) VH: EVQLVESGGGLEQPGGSLRLSCAGSGFTFRDFAMTWVRQAPGKGLEWVSSISGSGGNIYYADSVKGRFTISRDNSKNTLYLQMNSLRAEDTAVYYCAKDRLSKTIRPRYYGLDVWGQGTTVTVSS VL: DIVMTQSPLSLPVTPGEPASISCTASQSLLYSIGYNYVDWYLQKSGQSPQLLIYLGSKRASGVPDRFSGSGSGTDFTLKISRVEAEDVGFYYCMQALTTPYTFGQGTKLEIK |
| 0.83 | 0.0094 | 0.25 | 157 | 1.01 relative to dupilumab | 2.1 relative to dupilumab | 1.11 relative to dupilumab | 1.05 relative to dupilumab | 0.734 relative to dupilumab | 1.47 relative to dupilumab | 1.01 relative to dupilumab | 0.953 relative to dupilumab | Construct 8 (mAb417) (antibody, IgG4, V domains shown, VH/VL only) VH: EVQLVESGGGLEQPGGSLRLSCAGSGFTFRDFAMTWVRQAPGKGLEWVSSISGSGDNIYYADSVKGRFTISRDNSKNTLYLQMNSLRAEDTAVYYCAKDRLSVTVRPRYYGLDVWGQGTTVTVSS VL: DIVMTQSPLSLPVTPGEPASISCRSTQSLLYSIGKNYVDWYLQKSGQSPQLLIYLGNNRATGVPDRFSGSGSGTDFTLKISRVEAEDVGFYYCMQALTTPYAFGQGTKLEIK |
| 2.1 | 0.0238 | 0.18 | 116 | 0.78 relative to dupilumab | 1.07 relative to dupilumab | 0.552 relative to dupilumab | 0.897 relative to dupilumab | 0.521 relative to dupilumab | 0.94 relative to dupilumab | 1.01 relative to dupilumab | 1 relative to dupilumab | Construct 5 (mAb414) (antibody, IgG4, V domains shown, VH/VL only) VH: EVQLVESGGGLEQPGGSLRLSCAGSGFTFRDFAMTWVRQAPGKGLEWVSSISGSGDNIYYADSVKGRFTISRDNSKNTLYLQMNSLRAEDTAVYYCAKDRVSITIRPRYYGLDVWGQGTTVTVSS VL: DIVMTQSPLSLPVTPGEPASISCRSSQSLLYSIGKNYVDWYLQKSGQSPQLLIYLGNKRASGVPDRFSGSGSGTDFTLKISRVEAEDVGFYYCMQSLQTPYVFGQGTKLEIK |
| 1.25 | 0.0141 | 0.17 | 107 | 0.592 relative to dupilumab | 0.671 relative to dupilumab | 0.427 relative to dupilumab | 0.485 relative to dupilumab | 0.414 relative to dupilumab | 1.37 relative to dupilumab | 1.1 relative to dupilumab | 0.968 relative to dupilumab | Construct 1 (mAb410) (antibody, IgG4, V domains shown, VH/VL only) VH: EVQLVESGGGLEQPGGSLRLSCAGSGFTFRDFAMTWVRQAPGKGLEWVSSISGSGGNIYYADSVKGRFTISRDNSKNTLYLQMNSLRAEDTAVYYCAKDRLSKTIRPRYYGLDVWGQGTTVTVSS VL: DIVMTQSPLSLPVTPGEPASISCRSSQSVLYSIGYNYVDWYLQKSGQSPQLLIYLGSKRASGVPDRFSGSGSGTDFTLKISRVEAEDVGFYYCMQSLDTPYTFGQGTKLEIK |
| 1.24 | 0.014 | 0.2 | 128 | 0.493 relative to dupilumab | 0.862 relative to dupilumab | 0.266 relative to dupilumab | 0.614 relative to dupilumab | 0.442 relative to dupilumab | 1.11 relative to dupilumab | 1.01 relative to dupilumab | 0.989 relative to dupilumab | Construct 4 (mAb413) (antibody, IgG4, V domains shown, VH/VL only) VH: EVQLVESGGGLEQPGGSLRLSCAGSGFTFRDFAMTWVRQAPGKGLEWVSSISGSGGNIYYADSVKGRFTISRDNSKNTLYLQMNSLRAEDTAVYYCAKDRLSKTIRPRYYGLDVWGQGTTVTVSS VL: DIVMTQSPLSLPVTPGEPASISCTASQSLLYSIGYNYVDWYLQKSGQSPQLLIYLGNNRATGVPDRFSGSGSGTDFTLKISRVEAEDVGFYYCMQALTTPYTFGQGTKLEIK |
| 1.02 | 0.0115 | 0.09 | 59.5 | 0.729 relative to dupilumab | 1.35 relative to dupilumab | 0.879 relative to dupilumab | 1.44 relative to dupilumab | 0.92 relative to dupilumab | 2.06 relative to dupilumab | 1.16 relative to dupilumab | 0.99 relative to dupilumab | Construct 6 (mAb415) (antibody, IgG4, V domains shown, VH/VL only) VH: EVQLVESGGGLEQPGGSLRLSCAGSGFTFRDFAMTWVRQAPGKGLEWVSSISGSGDNIYYADSVKGRFTISRDNSKNTLYLQMNSLRAEDTAVYYCAKDRLSVTVRPRYYGLDVWGQGTTVTVSS VL: DIVMTQSPLSLPVTPGEPASISCRSSQGLLYSIGYNYVDWYLQKSGQSPQLLIYLGNKRASGVPDRFSGSGSGTDFTLKISRVEAEDVGFYYCMQSLQTPYTFGQGTKLEIK |
